Results as given in article PMC3597514.

Assays:
[1] = biological target: NbSPL6-Yc (N. benthamiana); assay: split reporter (BiFC, NanoBiT); as a5, but with tCFP alone in place of tCFP-p50-U1
[2] = biological target: NbSPL6-Yc (N. benthamiana); assay: split reporter (BiFC, NanoBiT); as a5, but with the non-eliciting p50-Ob-tCFP in place of tCFP-p50-U1; percent of cells as the ratio to the cells seen with tCFP-p50-U1

B1: gN-Yn (receptor)
chain: MASSSSSSRWSYDVFLSFRGEDTRKTFTSHLYEVLNDKGIKTFQDDKRLEYGATIPGELCKAIEESQFAIVVFSENYATSRWCLNELVKIMECKTRFKQTVIPIFYDVDPSHVRNQKESFAKAFEEHETKYKDDVEGIQRWRIALNEAANLKGSCDNRDKTDADCIRQIVDQISSKLCKISLSYLQNIVGIDTHLEKIESLLEIGINGVRIMGIWGMGGVGKTTIARAIFDTLLGRMDSSYQFDGACFLKDIKENKRGMHSLQNALLSELLREKANYNNEEDGKHQMASRLRSKKVLIVLDDIDNKDHYLEYLAGDLDWFGNGSRIIITTRDKHLIEKNDIIYEVTALPDHESIQLFKQHAFGKEVPNENFEKLSLEVVNYAKGLPLALKVWGSLLHNLRLTEWKSAIEHMKNNSYSGIIDKLKISYDGLEPKQQEMFLDIACFLRGEEKDYILQILESCHIGAEYGLRILIDKSLVFISEYNQVQMHDLIQDMGKYIVNFQKDPGERSRLWLAKEVEEVMSNNTGTMAMEAIWVSSYSSTLRFSNQAVKNMKRLRVFNMGRSSTHYAIDYLPNNLRCFVCTNYPWESFPSTFELKMLVHLQLRHNSLRHLWTETKHLPSLRRIDLSWSKRLTRTPDFTGMPNLEYVNLYQCSNLEEVHHSLGCCSKVIGLYLNDCKSLKRFPCVNVESLEYLGLRSCDSLEKLPEIYGRMKPEIQIHMQGSGIRELPSSIFQYKTHVTKLLLWNMKNLVALPSSICRLKSLVSLSVSGCSKLESLPEEIGDLDNLRVFDASDTLILRPPSSIIRLNKLIILMFRGFKDGVHFEFPPVAEGLHSLEYLNLSYCNLIDGGLPEEIGSLSSLKKLDLSRNNFEHLPSSIAQLGALQSLDLKDCQRLTQLPELPPELNELHVDCHMALKFIHYLVTKRKKLHRVKLDDAHNDTMYNLFAYTMFQNISSMRHDISASDSLSLTVFTGQPYPEKIPSWFHHQGWDSSVSVNLPENWYIPDKFLGFAVCYSRSLIDTTAHLIPVCDDKMSRMTQKLALSECDTESSNYSEWDIHFFFVPFAGLWDTSKANGKTPNDYGIIRLSFSGEEKMYGLRLLYKEGPEVNALLQMRENSNEPTEHSTGIRRTQYNNRTSFYELING
For B1, the percent of cells with citrine fluorescence (with tCFP alone) (% of the cells) [1] was 10 and the percent of cells with citrine fluorescence (with p50-Ob-tCFP) (% of the cells) [2] was 13.
